The values below come from patent CN116041496A.

This assay deals with H7N9亚型禽流感病毒血凝素(HA)，野生型病毒上 (H7N9亚型禽流感病毒). Description: cell-based or functional assay.

B1: H7N9-NeuAb (antibody, V domains shown)
VH: QVQLQQPRAELVMPGASVRMSCQASGYTFTDFWIHWVKQRPGQGLEWIGAIDTSDSYTTYNQNFRGKASLTVDESSSTAYMQLSSLTSEDSAVYYCARLDDGFYNYAMDYWGQGTSVTVSS
VL: NIMMTQSPSSLAVSAGEKVTLNCKSSQSVLNSSNQKNYLAWYQQRPGQSPKLLIYWASTREAGVPDRFTGSGSGTDFTLTISSVKAEDLAVYYCHQYLSSYTFGGGTKLKIK
Molecule B1 showed an HI 终点浓度 of 1.5 µg/mL, an HI效价 of 512, a 中和 终点浓度 of 0.15 µg/mL and a 中和效价 of 5120.
